# Reference: patent US20150253341A1
# B1: mouse monoclonal anti-Tau antibody clone 13A6 (antibody, V domains shown)
# VH: EVQLQQSGAELVRPGASVKLPCTASGFNIKDDYMNWVMQRPERGLEWIGWIDPENGDTAYASKFQGKATMTADTSSNTAYLQLSSLTSEDTAVYYCTSGGRFDYWGQGTSLTVSS
# VL: DVLMTQTPLSLPVSLGDQASISCRSSQSIVHSNGSTYLEWYLQKPGQSPKLLIYKVSNRFSGVPDRFSGSGSGTDFTLKINRVEAEDLGVYYCFQGSHVPWTFGGGTKLEIK
# Molecular target: all six recombinant human Tau isoforms
# Assay: immunoaffinity purification on 13A6 beads, trypsin digestion and LC-MS/MS, with against without purification
binder,measurement,value
B1,percent recovery,60 to 75%
